{"source": "patent US20210171576", "target": "Untagged human mitochondrial ClpP (HsClpP) (UniProt Q16740)", "sequence (Q16740 other isoform, or with tags, fused parts or gaps)": "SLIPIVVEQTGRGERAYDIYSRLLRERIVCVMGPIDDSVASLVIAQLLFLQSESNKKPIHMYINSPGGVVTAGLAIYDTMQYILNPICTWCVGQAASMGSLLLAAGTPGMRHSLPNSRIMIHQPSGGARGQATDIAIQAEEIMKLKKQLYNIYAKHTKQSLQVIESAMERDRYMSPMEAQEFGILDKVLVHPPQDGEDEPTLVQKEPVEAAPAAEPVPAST", "data": [{"substance": "Untagged human mitochondrial ClpX (HsClpX)", "values": [{"measurement": "Hill coefficient (h) of casein-FITC degradation by HsClpP with titrated HsClpX", "value": "mild positive cooperativity (h=1.25) in HsCIpP-binding"}, {"measurement": "K0.5 (microscopic apparent dissociation constant). Hill fit of initial rates of casein-FITC degradation; HsClpX titrated 0-18 µM against 3 µM HsClpP", "value": "a K0.5 of 5.7 µM"}, {"measurement": "Vmax of casein-FITC degradation by HsClpP with titrated HsClpX", "value": "a Vmax of 6.88 RFU.s^-1"}]}]}
